Laboratory results taken from patent US20110318339A1 (FABRUS, published 2011).
Positions count from the first letter of the chain named. Names may count otherwise.

B1: Fab VH5-51_IGHD5-18*01>3_IGHJ4*01 & V3-4_IGLJ1*01 (Fab, V domains shown)
VH: EVQLVQSGAEVKKPGESLKISCKGSGYSFTSYWIGWVRQMPGKGLEWMGIIYPGDSDTRYSPSFQGQVTISADKSISTAYLQWSSLKASDTAMYYCARRGYSYGYDYFDYWGQGTLVTVSS
VL: QTVVTQEPSFSVSPGGTVTLTCGLSSGSVSTSYYPSWYQQTPGQAPRTLIYSTNTRSSGVPDRFSGSILGNKAALTITGAQADDESDYYCVLYMGSGISYVFGTGTKVTVL
notes: Fab made in E. coli: VH on CH1 with His6 and Flag tags (Plasmid A), VL on lambda CL (Plasmid E); also called wildtype; parent
B2: Fab VH5-51_IGHD5-18*01>3_IGHJ4*01 G100K/G104T & V3-4_IGLJ1*01 M94R/S96M (Fab, V domains shown)
VH: B1 VH with G100K, G104T
VL: B1 VL with M94R, S96M
notes: Fab made in E. coli: VH on CH1 with His6 and Flag tags (Plasmid A), VL on lambda CL (Plasmid E); also called H: KT & L: RM
B3: Fab VH5-51_IGHD5-18*01>3_IGHJ4*01 G100K/G104T G24A/S28R/G35V & V3-4_IGLJ1*01 (Fab, V domains shown)
VH: B1 VH with G24A, S28R, G35V, G100K, G104T
VL: B1 VL
notes: Fab made in E. coli: VH on CH1 with His6 and Flag tags (Plasmid A), VL on lambda CL (Plasmid E); also called H: KT ARV & L: wt
B4: Fab VH5-51_IGHD5-18*01>3_IGHJ4*01 G100K/G104T G24L/S28R/G35V & V3-4_IGLJ1*01 (Fab, V domains shown)
VH: B1 VH with G24L, S28R, G35V, G100K, G104T
VL: B1 VL
notes: Fab made in E. coli: VH on CH1 with His6 and Flag tags (Plasmid A), VL on lambda CL (Plasmid E); also called H: KT LRV & L: wt
B5: Fab VH5-51_IGHD5-18*01>3_IGHJ4*01 G100K/G104T G24T/S28R/G35V & V3-4_IGLJ1*01 V91L/S96P S52F (Fab, V domains shown)
VH: B1 VH with G24T, S28R, G35V, G100K, G104T
VL: B1 VL with S52F, V91L, S96P
notes: Fab made in E. coli: VH on CH1 with His6 and Flag tags (Plasmid A), VL on lambda CL (Plasmid E); also called H: KT TRV & L: LP S52F
B6: Fab VH5-51_IGHD5-18*01>3_IGHJ4*01 G100K/G104T G24T/S28R/G35V & V3-4_IGLJ1*01 V91L/S96P S52H (Fab, V domains shown)
VH: B1 VH with G24T, S28R, G35V, G100K, G104T
VL: B1 VL with S52H, V91L, S96P
notes: Fab made in E. coli: VH on CH1 with His6 and Flag tags (Plasmid A), VL on lambda CL (Plasmid E); also called H: KT TRV & L: LP S52H
B7: Fab VH5-51_IGHD5-18*01>3_IGHJ4*01 G100K/G104T G24T/S28R/G35V & V3-4_IGLJ1*01 V91L/S96P S52I (Fab, V domains shown)
VH: B1 VH with G24T, S28R, G35V, G100K, G104T
VL: B1 VL with S52I, V91L, S96P
notes: Fab made in E. coli: VH on CH1 with His6 and Flag tags (Plasmid A), VL on lambda CL (Plasmid E); also called H: KT TRV & L: LP S52I
B8: Fab VH5-51_IGHD5-18*01>3_IGHJ4*01 G100K/G104T G24T/S28R/G35V & V3-4_IGLJ1*01 V91L/S96P S52K (Fab, V domains shown)
VH: B1 VH with G24T, S28R, G35V, G100K, G104T
VL: B1 VL with S52K, V91L, S96P
notes: Fab made in E. coli: VH on CH1 with His6 and Flag tags (Plasmid A), VL on lambda CL (Plasmid E); also called H: KT TRV & L: LP S52K
B9: Fab VH5-51_IGHD5-18*01>3_IGHJ4*01 G100K/G104T G24T/S28R/G35V & V3-4_IGLJ1*01 V91L/S96P S52L (Fab, V domains shown)
VH: B1 VH with G24T, S28R, G35V, G100K, G104T
VL: B1 VL with S52L, V91L, S96P
notes: Fab made in E. coli: VH on CH1 with His6 and Flag tags (Plasmid A), VL on lambda CL (Plasmid E); also called H: KT TRV & L: LP S52L
B10: Fab VH5-51_IGHD5-18*01>3_IGHJ4*01 G100K/G104T G24T/S28R/G35V & V3-4_IGLJ1*01 V91L/S96P S52N (Fab, V domains shown)
VH: B1 VH with G24T, S28R, G35V, G100K, G104T
VL: B1 VL with S52N, V91L, S96P
notes: Fab made in E. coli: VH on CH1 with His6 and Flag tags (Plasmid A), VL on lambda CL (Plasmid E); also called H: KT TRV & L: LP S52N
B11: Fab VH5-51_IGHD5-18*01>3_IGHJ4*01 G100K/G104T G24T/S28R/G35V & V3-4_IGLJ1*01 V91L/S96P S52P (Fab, V domains shown)
VH: B1 VH with G24T, S28R, G35V, G100K, G104T
VL: B1 VL with S52P, V91L, S96P
notes: Fab made in E. coli: VH on CH1 with His6 and Flag tags (Plasmid A), VL on lambda CL (Plasmid E); also called H: KT TRV & L: LP S52P

Tests used:
[1] = molecular target: T1, recombinant human DLL4 (Cat# 1506-D4/CF, R&D Systems) (human, UniProt Q9NR61 27-529); assay: ELISA, DLL4 coated, Fab 50 nM
T1 construct: Bought protein; also called hDLL4; rHuman DLL4
Procedure: (§1) In this example, an ELISA binding assay was used to assess the dose-dependent binding of Fab antibodies to recombinant human DLL4 and recombinant mouse DLL4.
(§2) The plate was blocked by adding 1% BSA in Tris-buffered Saline Tween (TBST) and incubating for 1 hour at room temperature followed by washing 2 times with 150 μl TBST. A Fab antibody was serially diluted in 1% BSA in PBS. A 50 μl aliquot of each serial dilution was added, in triplicate, to each well and the plate was incubated for 1 hour at room temperature followed by washing 2 times with TBST. 50 μl of either goat anti-human kappa HRP conjugated secondary antibody (Cat # A7164-1 mL, Sigma-Aldrich) or goat anti-human lambda HRP conjugated secondary antibody (Cat # L1645-1 ml, Sigma-Aldrich), diluted 1:1000 in 1% BSA in PBS, was added to each well and the plate was incubated for 30 minutes at room temperature followed by washing 3 times with 200 μl TBST. Finally, 50 μl TMB one-component reagent (Cat # TMBW-1000-01, BioFax) was added and allowed to develop for 2 minutes at room temperature. The reaction was immediately halted by the addition of 50 μl 0.5M H₂SO₄ and the absorbance at 450 nm was measured using an ELISA plate reader.

[2] = molecular target: T1, recombinant human DLL4 (Cat# …); assay: ELISA, DLL4 coated, Fab 25 nM
Procedure: as §2

[3] = molecular target: T1, recombinant human DLL4 (Cat# …); assay: ELISA, DLL4 coated, Fab 12.5 nM
Procedure: as §1, §2

[4] = molecular target: T1, recombinant human DLL4 (Cat# …); assay: ELISA, DLL4 coated, Fab 100 nM
Procedure: as §1, §2

[5] = molecular target: T1, recombinant human DLL4 (Cat# …); assay: ELISA, DLL4 coated, Fab 20 nM
Procedure: as §2

[6] = molecular target: T1, recombinant human DLL4 (Cat# …); assay: ELISA, DLL4 coated, Fab 0.74 nM
Procedure: as §2

[7] = molecular target: T1, recombinant human DLL4 (Cat# …); assay: ELISA, DLL4 coated, Fab 6.67 nM
Procedure: as §2

[8] = molecular target: T1, recombinant human DLL4 (Cat# …); assay: ELISA, DLL4 coated, Fab 2.22 nM
Procedure: as §2

Binder | ELISA absorbance at 450 nm [1] [A450] | ELISA absorbance at 450 nm [2] [A450] | ELISA absorbance at 450 nm [3] [A450] | ELISA absorbance at 450 nm [4] [A450] | ELISA absorbance at 450 nm [5] [A450] | ELISA absorbance at 450 nm [6] [A450] | ELISA absorbance at 450 nm [7] [A450] | ELISA absorbance at 450 nm [8] [A450]
B1 | 0.16 | 0.18 | 0.17 | 0.17 | – | – | – | –
B2 | – | – | – | – | 0.087 | 0 | 0.023 | 0.007
B3 | – | – | – | – | 0.054 | 0.008 | 0.025 | 0.002
B4 | – | – | – | – | 0.027 | 0.006 | 0.005 | 0
B5 | 0.69 | 0.49 | 0.42 | 0.99 | – | – | – | –
B6 | 0.91 | 0.73 | 0.5 | 1.09 | – | – | – | –
B7 | 0.82 | 0.6 | 0.4 | 1.04 | – | – | – | –
B8 | 1.03 | 0.79 | 0.56 | 1.23 | – | – | – | –
B9 | 0.78 | 0.58 | 0.43 | 1.02 | – | – | – | –
B10 | 0.9 | 0.86 | 0.65 | 1.05 | – | – | – | –
B11 | 0.79 | 0.59 | 0.43 | 1 | – | – | – | –
